Measured values published in article PMC2845155.

Tested on: CC(=O)N[C@H]1[C@@H]2OC[C@@H](O2)[C@@H](O)[C@@H]1O[C@H](C)C(=O)N[C@@H](C)C(=O)N[C@H](CCC(=O)N[C@@H](CCC[C@@H](N)C(=O)O)C(=O)O)C(=O)O
Assay: LC/MS of substrate consumption or product formation, nonlinear regression
Assay type: biochemical, Citrobacter freundii
Conditions: pH 7.0, hydrolysis at lactyl amide bond

Substance: AmpD (Citrobacter freundii)
- Km: 360 ± 10 µM
- kcat: 25 ± 2 s⁻¹
- kcat/Km: 69000 ± 4000 M⁻¹ s⁻¹
